# Experimental data reported in the nanobody polyreactivity screen of Harvey et al. (2022).
# Test: yeast display, Sf9 membrane polyspecificity reagent, FACS + sequencing; frameworks hold sequencing errors
# How it was run: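 A nanobody's polyreactivity label depends on the gate it was sorted from. Yeast display cells were stained with 10% biotinylated, detergent-solubilized Sf9 membrane reagent for 1 hour at 4 °C, enriched on streptavidin microbeads and sorted by FACS. The low and high (top ~1%) gates were set on anti-HA fluorescence for expression and streptavidin fluorescence for reagent binding.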
row,Sequence,polyreactivity (PSR sort gate)
1,QVQLVESGGGLVQAGGSLRLSCAASGSTFRYNAMGWYRQAPGKERELVASISGSGGGTYYADSVKGRFTISRDNAKNTVYLQMNSLKPEDTAVYYCAADAGAFYFGGDYWGQGTQVTVSS,low polyreactivity
2,QVQLVESGGGLVQAGGSLRLSCAASGSTFRYNTMGWYRQAPGKERELVAAISTSGGTTYYADSVKGRFTISRDNAKNTVYLQMNSLKPEDTAVYYCAARPFPRRWYGAEDYYWGQGTQVTVSS,high polyreactivity
3,QVQLVESGGGLVQAGGSLRLSCAASGSTFRYYAMGRYRQAPGKERELVAVISTSGNTYYADSVKGRFTISRDNAKNTVYLQMNSLKPEDTAGYYCAAGGVGGQISQEYDYWGQGTQVTVSS,low polyreactivity
4,QVQLVESGGGLVQAGGSLRLSCAASGSTFRYYAMGWYREAPGKEREFVAAISLRAGSTYYADSVKGRFTISRDNAKNTVYLQMNSLKPEDTAVYYCAARRASYGTRRYDYWGQGTQVTVSS,high polyreactivity
5,QVQLVESGGGLVQAGGSLRLSCAASGSTFRYYAMGWYRQAPGKERELVAAINYGGGRTYYADSVKGRFTISRDNAKNTVYLQMNSLKPEDTAVYYCATGYYYYRFYTYGYWGQGTQVTVSS,high polyreactivity
6,QVQLVESGGGLVQAGGSLRLSCAASGSTFRYYAMGWYRQAPGKERELVAAISTGGTTYYADSVKGRFTISRENAKNTVYLQMNSLKPEDTAVYYCNTVRLFDYGYWGQGTQVTVSS,low polyreactivity
7,QVQLVESGGGLVQAGGSLRLSCAASGSTFRYYAMGWYRQAPGKERELVAAITRSGGSTSYADSVKGRFTISRDNAKNTVYLQMNSLKPEDTAVYYCAARFYRPYYARQGYNYWGQGTQVTVSS,high polyreactivity
8,QVQLVESGGGLVQAGGSLRLSCAASGSTFRYYAMGWYRQAPGKERELVAGISSSGGSTYYADSVKGRFTISRDNAKNTVYLQMNSLNPEDTAVYYCIAARGTSRSWAVFADYDYWGQGTQVTVSS,high polyreactivity
9,QVQLVESGGGLVQAGGSLRLSCAASGSTFRYYAMGWYRQAPGKERELVASISSGGSTNYADSVKGRFTISRDNAKNTVYLQMNSLKPGDTAVYYCNADSWTVNRRYYYYRYEYWGQGTQVTVSS,low polyreactivity
10,QVQLVESGGGLVQAGGSLRLSCAASGSTFRYYAMGWYRQAPGKERELVATITGSGGSTYYADSVKGRFTISRDNAKNTVYLQMNSLKPEDTAVYYCAAYYSGGYDYWGQGTQVTVSS,high polyreactivity
11,QVQLVESGGGLVQAGGSLRLSCAASGSTFRYYGMGWYRQAPGKERELVAAITWSSGSTFYADSVKGRFTISRDNAKNTVYLQMNSLKPEDTAVYYCAKTWWTRLKTKSLHFGYWGQGTQVTVSS,high polyreactivity
12,QVQLVESGGGLVQAGGSLRLSCAASGSTFRYYTMGWYRQAPGKERELVAAITRRSASTYYADSVKGRFTISRDNAKNTVYLQMNSLKPEDTAVYYCAVRTNGPFEYWGQGTQVTVSS,high polyreactivity
13,QVQLVESGGGLVQAGGSLRLSCAASGSTFRYYTMGWYRQAPGKERELVAAITWSGGSTYYADSVKGRFTISRDNAKNTVNLQMNSLKPEDTEVYYCNKEDVGSSESDYWGQGTQVTVSS,high polyreactivity
14,QVQLVESGGGLVQAGGSLRLSCAASGSTFRYYTMGWYRQAPGKERELVAAITWSGGSTYYADSVKGRFTISRDNAKNTVYLQMNSLKPEDTAVYYCNARSLQWTPRAYYYWGQGTQVTVSS,high polyreactivity
15,QVQLVESGGGLVQAGGSLRLSCAASGSTFRYYTMGWYRQAPGKERELVARISWSGGSTYYADSVKGRFTISRDNAKNTVYLQMNSLKPEDTAVYYCNAVLFYFQTRDYWGQGTQVTVSS,high polyreactivity
16,QVQLVESGGGLVQAGGSLRLSCAASGSTFSANAMGWYRQAPGKERELLAAISSGDITYYADSVKGRFTISRDNAKNTVYLQMNSLKPEDTAVYYCAKYTRPTGNVDDGFEYWGQGTQVTVSS,low polyreactivity
17,QVQLVESGGGLVQAGGSLRLSCAASGSTFSANAMGWYRQAPGKERELVAAISRRGGSTNYADSVKGRFTISRDNAKNTVYLQMNSLKPEDTAVYYCAALYVPRSPFSYDYWGQGTQVTVSS,high polyreactivity
18,QVQLVESGGGLVQAGGSLRLSCAASGSTFSANAMGWYRQAPGKERELVAAITYRGGNTYYADSVKGRFTISRDNAKNTVYLQMNSLKPEDTAVYYCNRDLRVRYRRLKYGYWGQGTQVTVSS,low polyreactivity
19,QVQLVESGGGLVQAGGSLRLSCAASGSTFSANAMGWYRQAPGKERELVAGISRSGGRTYYADSVKGRFTISRDNEMNTVYLQMNSLKPEDTAVYYCNARRRGAGGYDYWGQGTQVTVSS,high polyreactivity
20,QVQLVESGGGLVQAGGSLRLSCAASGSTFSAYAMGWYRQAPGKERELVATITSDGSTNYADSVKGRFTISRDNAKNTVYLQMNSLKPEDTAVYYCAAKRQYKRSRMYYWGQGTQVTVSS,high polyreactivity
21,QVQLVESGGGLVQAGGSLRLSCAASGSTFSDNAMGWYRQAPGKERELVATINASGGSTYYADSVKGRFTITRDNAKNTVYLQMNSLKPEDTAVYYCAADVYTRFWRVYRFDYWGQGTQVTVSS,low polyreactivity
22,QVQLVESGGGLVQAGGSLRLSCAASGSTFSDNDMGWYRQAPGKERELVATIDDDGSTYYADSVKGRFTISRDNAKNTVYLQMNSLKPEDTAVYYCAAEWYGGYPFGYWGQGTQVTVSS,low polyreactivity

row,Sequence,polyreactivity (PSR sort gate)
1,QVQLVESGGGLVQAGGSLRLSCAASGSTFSDYVMGWYRQAPGKEREFVDAISWTGGITYYADSVKGRFTISRDNAKNTVYLQMNSLKPEDTAVYYSAAKRKYYGNGYWGQGTQVTVSS,high polyreactivity
2,QVQLVESGGGLVQAGGSLRLSCAASGSTFSEKAMGWYRQAPGKERELVAAISRRGGSTYYADSVKGRFTISRDNAKNTVYYQMNSLKPEDTAVYYCNVVNSGSFDYDYWGQGTPVTVSS,high polyreactivity
3,QVQLVESGGGLVQAGGSLRLSCAASGSTFSEYVMGWYRQAPGKQRELVAAIRSNGGSTYYADSVKGRFTISRDNAKNTVYLQMNSLKPEDTAVYYCNRVYSRRTYNSPLYDYWGQGTQVTVSS,high polyreactivity
4,QVQLVESGGGLVQAGGSLRLSCAASGSTFSFNDMGGYRPAPGKERELVADISWSGDTTYADSVKGRFTISRDNAKNTVYLQMNSLIPEDSAVYYCNAEGFSISFYGNWVVQWEFDYWGQGTQVTVSS,high polyreactivity
5,QVQLVESGGGLVQAGGSLRLSCAASGSTFSGNAMGWYRQAPGKEREMVAAITSSRGSTYYADSVKGRFTISRDHAQNTVDLQLNSLKPEDTAVYYCNRYSGGRWYPEYYYWGQGTQVTVSS,high polyreactivity
6,QVQLVESGGGLVQAGGSLRLSCAASGSTFSGNTMGWYRQAPGKERELVADINWSSGSTYYADSVKGRFTISRDNAKNTVYLQMNSLKPEDTAVYYCAAVEPFYDFDYWGQGTQVTVSS,low polyreactivity
7,QVQLVESGGGLVQAGGSLRLSCAASGSTFSGYAMGWYRQAPGKEMEFVATISISGGSTYYADSVKGRFTISRDNAKNTVYLQMNSLKPEDTAVYYCNADYYFSWGSIEDYWGQGTQVTVSS,low polyreactivity
8,QVQLVESGGGLVQAGGSLRLSCAASGSTFSGYAMGWYRQAPGKERELVAAISRRGTSTYYADSVKGRFTISRDNAKNTVYLQMNSLKPEDTAVYYCAARPSGYVIGGYGYWGQGTQVTVSS,high polyreactivity
9,QVQLVESGGGLVQAGGSLRLSCAASGSTFSGYAMGWYRQAPGKERELVAAITRSGGSTYYADSVKGRFTISRDNAKNTVYLQMNSLKPEDTAVYYCNVYFGYWVPTSTYYWSWDDYWGQGTQVTVSS,low polyreactivity
10,QVQLVESGGGLVQAGGSLRLSCAASGSTFSHYTMGSYRQAAGKERELVAAITRSGGSTYYADSVKGRFTISRDNAKNTVYLQMNSLKTEDSAVYYSAATRHWNILRYDYWGQGTQVTVSS,low polyreactivity
11,QVQLVESGGGLVQAGGSLRLSCAASGSTFSINAMGWYRQAPGKERELVAAITWRGTRTYYADSVKGRFTISRDNAKNTVYLQMNSLTPEDTAVYYCAATGSGQASYYYWGQGTQVTVSS,high polyreactivity
12,QVQLVESGGGLVQAGGSLRLSCAASGSTFSKNTMGWYRQAPGKERELVAAITTRGSSTYYADSVKGRFTISRDNAKNTVYLQMNSLKPEDTAVYYCAAGRYGWKHVWYYYWGQGTQVTVSS,high polyreactivity
13,QVQLVESGGGLVQAGGSLRLSCAASGSTFSLYDMGWYRQAPGKERELVAAIRWSGDSTYYADSVKGRFTISRDNAKNTVYLQMNSLKPEDTAVYYCAKDQSSPWDIQFLVYGGYEYWGQGTQVTVSS,low polyreactivity
14,QVQLVESGGGLVQAGGSLRLSCAASGSTFSNNAMAWYRQAPGKERELVAGINSSGGRTYYADSVKGRFTISRDNAKNTVYLQMISLKPEDTAVYYCAAESRYYYELGYWGQGTQVTVSS,high polyreactivity
15,QVQLVESGGGLVQAGGSLRLSCAASGSTFSPNAMGWYRQAPGKERELVAAITGGGSTYADSVKGRFTISRDNAKNTVYLQMNSLKPEDTAVYYCNRDYRSDLGYADQSWTDQYDYWGQGTQVTVSS,low polyreactivity
16,QVQLVESGGGLVQAGGSLRLSCAASGSTFSPNAMGWYRQAPGKERELVAAITYRGANTYYADSVKGRFTISRDNAKNTVYLQMNSLKPEDTAVYYCAAEYAYHHVGFGYWGQGTLVTVSS,low polyreactivity
17,QVQLVESGGGLVQAGGSLRLSCAASGSTFSPNVMGWYRQAPGKERELVAAISSSTGSTNYADSVKGRFTISRDNAKNTVYLQMNSLKPEDTAVDYCAVDPYVHWTTKLYDYWGQGTLVTVSS,low polyreactivity
18,QVQLVESGGGLVQAGGSLRLSCAASGSTFSPYAMGGSRQAPGKEREVVAAINSGSSTNYADSVKGRFTISRDNAKNTVYFQMNSLKPEDTAVYYCAADGQLPPRGILASWEFDYWGQGTQVTVSS,low polyreactivity
19,QVQLVESGGGLVQAGGSLRLSCAASGSTFSPYAMGWYRQAPGKEREIVAAISWGDGSTYYADSVKGRFTISRDNAKNTVYLQINSLKPEDTAVYYCNVKPSARGAPLYDYWGQGTQVTVSS,high polyreactivity
20,QVQLVESGGGLVQAGGSLRLSCAASGSTFSPYAMGWYRQSPGKEMELVAVITSSGGDTYYADSVKGRFTISRDNAKNTVYLQMNSLKPEDTAVYYCAADWWVLGQLWFDYWGQGTQVTVSS,low polyreactivity
21,QVQLVESGGGLVQAGGSLRLSCAASGSTFSPYDMGWYRQAPGKERELVAAITYRGGSTYYADSVKGRFTISRDNAKNTVYLQMNSLKPEDTAVYYCAAEIYQYSYGGTGWTLDWGQGTQVTVSS,low polyreactivity
